Reference: US20200317768A1 (published 2020)
Substitutions are numbered along the chain they refer to. In names and notes the source's numbering stands.

T1: human FcγRIIaR extracellular domain, C-terminal His-tag (human, UniProt P12318 34-217)
T1 construct: also called human FcγRIIa (type R); FcgRIIaR
T1 chain: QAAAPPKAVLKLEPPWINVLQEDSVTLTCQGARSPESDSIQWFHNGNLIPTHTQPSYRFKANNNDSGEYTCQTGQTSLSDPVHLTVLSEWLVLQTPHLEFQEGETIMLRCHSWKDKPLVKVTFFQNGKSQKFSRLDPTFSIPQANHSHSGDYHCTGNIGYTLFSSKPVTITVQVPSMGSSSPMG

T2: cynomolgus monkey FcγRIIa3 extracellular domain, C-terminal His-tag (cynomolgus monkey)
T2 construct: also called cyno FcγRIIa3; FcgRIIa3
T2 chain: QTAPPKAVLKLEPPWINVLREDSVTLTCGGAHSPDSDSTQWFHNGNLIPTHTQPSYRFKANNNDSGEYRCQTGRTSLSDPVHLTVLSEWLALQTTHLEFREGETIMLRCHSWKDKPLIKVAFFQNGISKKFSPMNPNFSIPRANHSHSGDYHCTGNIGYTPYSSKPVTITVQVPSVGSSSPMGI

T3: human FcγRIIaH extracellular domain, C-terminal His-tag (human, UniProt P12318 34-217)
T3 construct: also called human FcγRIIa (type H); FcgRIIaH
T3 sequence: T1 chain with R134H

T4: cynomolgus monkey FcγRIIIaS extracellular domain, C-terminal His-tag (cynomolgus monkey, UniProt Q8SPW2 21-206 at identity 1.00))
T4 construct: also called cyno FcγRIIIaS; FcgRIIIaS
T4 chain: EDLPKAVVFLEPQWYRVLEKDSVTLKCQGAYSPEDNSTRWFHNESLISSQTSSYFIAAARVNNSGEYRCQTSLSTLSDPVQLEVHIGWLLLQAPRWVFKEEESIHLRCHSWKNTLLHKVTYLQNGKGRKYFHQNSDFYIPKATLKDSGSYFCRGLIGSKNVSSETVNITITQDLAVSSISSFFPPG

T5: cynomolgus monkey FcγRIIb extracellular domain, C-terminal His-tag (cynomolgus monkey)
T5 construct: also called cyno FcγRIIb; cynoFcγRIIb
T5 chain: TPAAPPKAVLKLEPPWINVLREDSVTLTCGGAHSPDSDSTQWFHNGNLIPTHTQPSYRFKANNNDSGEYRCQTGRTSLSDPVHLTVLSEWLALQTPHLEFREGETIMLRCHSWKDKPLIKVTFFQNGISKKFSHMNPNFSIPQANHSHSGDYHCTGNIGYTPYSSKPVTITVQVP

T6: cynomolgus monkey FcγRIIa1 extracellular domain, C-terminal His-tag (cynomolgus monkey)
T6 construct: also called cyno FcγRIIa1; FcgRIIa1
T6 chain: T2 chain with T95P, A121T, S128A, P133H, N135D

T7: human FcγRIIb extracellular domain, C-terminal His-tag (human, UniProt P31994 43-217)
T7 construct: also called FcgRIIb (human)
T7 sequence: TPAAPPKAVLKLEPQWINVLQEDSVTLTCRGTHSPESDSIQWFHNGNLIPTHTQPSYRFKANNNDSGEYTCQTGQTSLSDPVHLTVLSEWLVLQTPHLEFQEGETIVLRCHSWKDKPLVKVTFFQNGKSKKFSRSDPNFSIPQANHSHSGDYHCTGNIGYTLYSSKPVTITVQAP

T8: cynomolgus monkey FcγRIIa2 extracellular domain, C-terminal His-tag (cynomolgus monkey)
T8 construct: also called cyno FcγRIIa2; FcgRIIa2
T8 chain: T2 chain with I127K, K130N, P133H, R142Q

B1: MS_M103205H795-SG1/M103202L889-SK1 (antibody, human IgG1, kappa)
heavy: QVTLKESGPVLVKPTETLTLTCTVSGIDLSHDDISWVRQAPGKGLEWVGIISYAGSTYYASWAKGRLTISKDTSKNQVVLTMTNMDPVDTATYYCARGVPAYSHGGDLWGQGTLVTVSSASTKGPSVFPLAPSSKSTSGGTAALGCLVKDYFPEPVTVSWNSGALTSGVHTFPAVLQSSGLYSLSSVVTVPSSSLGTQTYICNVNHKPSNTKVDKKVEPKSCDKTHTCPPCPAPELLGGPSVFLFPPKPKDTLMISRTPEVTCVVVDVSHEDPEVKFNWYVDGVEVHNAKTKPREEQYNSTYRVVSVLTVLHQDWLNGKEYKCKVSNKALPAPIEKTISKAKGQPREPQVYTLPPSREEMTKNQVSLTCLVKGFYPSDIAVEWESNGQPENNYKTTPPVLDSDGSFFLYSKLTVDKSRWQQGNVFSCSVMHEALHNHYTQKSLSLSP
light: DIVMTQSPATLSLSPGERATLSCTSSQSVYHANWLSWFQQKPGQPPKLLIYWASTLAYGVPSRFSGSGSGTDFTLTISSLQPEDAATYYCAGGYGGGRYAFGQGTKVEIKRTVAAPSVFIFPPSDEQLKSGTASVVCLLNNFYPREAKVQWKVDNALQSGNSQESVTEQDSKDSTYSLSSTLTLSKADYEKHKVYACEVTHQGLSSPVTKSFNRGEC
notes: also called MS1032LO06-SG1
B2: M103205H795-MY009/M103202L889-SK1 (antibody, human IgG1, kappa)
heavy: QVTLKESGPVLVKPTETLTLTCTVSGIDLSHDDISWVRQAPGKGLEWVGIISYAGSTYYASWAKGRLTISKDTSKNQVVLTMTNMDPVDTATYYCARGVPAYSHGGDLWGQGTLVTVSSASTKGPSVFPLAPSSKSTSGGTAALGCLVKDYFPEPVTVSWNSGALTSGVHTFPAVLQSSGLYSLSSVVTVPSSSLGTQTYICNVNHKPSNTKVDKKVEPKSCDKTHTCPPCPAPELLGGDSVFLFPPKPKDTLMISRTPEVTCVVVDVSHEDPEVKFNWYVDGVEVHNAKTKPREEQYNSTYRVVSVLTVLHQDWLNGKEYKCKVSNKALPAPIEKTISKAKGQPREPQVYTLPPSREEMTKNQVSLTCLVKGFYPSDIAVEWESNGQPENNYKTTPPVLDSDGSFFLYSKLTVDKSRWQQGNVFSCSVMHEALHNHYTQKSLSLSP
light: B1 light
notes: CH MY009 = SG1 with P238D (EU numbering); also called MS1032LO06-MY009

Assays:
[1] = molecular target: T1, human FcγRIIaR extracellular domain, …; assay: SPR (BIACORE) 25C, antibody captured, FcgR as analyte
Protocol: (§1) The kinetic analysis of interactions between these antibodies and FcγR was carried out using BIACORE® T200 or BIACORE® 4000 (GE Healthcare). HBS-EP+ (GE Healthcare) was used as the running buffer, and the measurement temperature was set to 25° C. A chip produced by immobilizing Protein A. Protein A/G or mouse anti-human IgG kappa light chain (BD Biosciences) onto a Series S Sensor Chip CM4 or CM5 (GE Healthcare) by the amine-coupling method was used. […] After the measurement, the antibody captured on the chip was washed off by allowing reaction with 10 mM glycine-HCl, pH1.5 and 25 mM NaOH so that the chip was regenerated and used repeatedly. The sensorgrams obtained as measurement results were analyzed by the 1:1 Langmuir binding model using the BIACORE® Evaluation Software to calculate the binding rate constant ka (L/mol/s) and dissociation rate constant kd (l/s), and the dissociation constant KD (mol/L) was calculated from these values. […] Regarding such interactions, KD values were calculated using the following 1:1 binding model described in BIACORE® T100 Software Handbook BR1006-48 Edition AE.

[2] = molecular target: T2, cynomolgus monkey FcγRIIa3 …; assay: as above
Protocol: as §1

[3] = molecular target: T3, human FcγRIIaH extracellular domain, …; assay: SPR; KD of SG1 / KD of variant;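 also: relative to parent M103205H795-SG1 carrying the SG1 human heavy chain constant region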
Protocol: as §1

[4] = molecular target: T4, cynomolgus monkey FcγRIIIaS …; assay: SPR; KD of SG1 / KD of variant;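 also: relative to parent M103205H795-SG1 carrying the SG1 human heavy chain constant region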
Protocol: as §1

[5] = molecular target: T1, human FcγRIIaR extracellular domain, …; assay: SPR; KD of SG1 / KD of variant;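 also: relative to parent M103205H795-SG1 carrying the SG1 human heavy chain constant region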
Protocol: as §1

[6] = molecular target: T5, cynomolgus monkey FcγRIIb extracellular …; assay: SPR; KD of SG1 / KD of variant;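 also: relative to parent M103205H795-SG1 carrying the SG1 human heavy chain constant region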
Protocol: as §1

[7] = molecular target: T6, cynomolgus monkey FcγRIIa1 …; assay: SPR; KD of SG1 / KD of variant
Protocol: as §1

[8] = molecular target: T7, human FcγRIIb extracellular domain, …; assay: SPR; KD of SG1 / KD of variant
Protocol: as §1

[9] = molecular target: T2, cynomolgus monkey FcγRIIa3 …; assay: SPR; KD of SG1 / KD of variant
Protocol: as §1

[10] = molecular target: T8, cynomolgus monkey FcγRIIa2 …; assay: SPR; KD of SG1 / KD of variant
Protocol: as §1

Binder	Kd [1] [µM]	Kd [2] [µM]	KD fold (SG1 = 1) [3] [fold]	KD fold (SG1 = 1) [4] [fold]	KD fold (SG1 = 1) [5] [fold]	KD fold (SG1 = 1) [6] [fold]	KD fold (SG1 = 1) [7] [fold]	KD fold (SG1 = 1) [8] [fold]	KD fold (SG1 = 1) [9] [fold]	KD fold (SG1 = 1) [10] [fold]
B1	1.4	15	1	1	1	1	1	1	1	1
B2	20	31	0.01	0.004	0.1	0.4	0.2	3.3	0.5	0.2
